The source of these data is paper PMC4975007.

This series has as its target Dbp2 (MBP-TEV-Dbp2 construct) (Saccharomyces cerevisiae, UniProt P24783 1-546). Description: fluorescence anisotropy. Background: Polarisation of emitted light reports the rotation of a fluorescent probe.

Sequence of Dbp2 (MBP-TEV-Dbp2 construct) (P24783 whole entry): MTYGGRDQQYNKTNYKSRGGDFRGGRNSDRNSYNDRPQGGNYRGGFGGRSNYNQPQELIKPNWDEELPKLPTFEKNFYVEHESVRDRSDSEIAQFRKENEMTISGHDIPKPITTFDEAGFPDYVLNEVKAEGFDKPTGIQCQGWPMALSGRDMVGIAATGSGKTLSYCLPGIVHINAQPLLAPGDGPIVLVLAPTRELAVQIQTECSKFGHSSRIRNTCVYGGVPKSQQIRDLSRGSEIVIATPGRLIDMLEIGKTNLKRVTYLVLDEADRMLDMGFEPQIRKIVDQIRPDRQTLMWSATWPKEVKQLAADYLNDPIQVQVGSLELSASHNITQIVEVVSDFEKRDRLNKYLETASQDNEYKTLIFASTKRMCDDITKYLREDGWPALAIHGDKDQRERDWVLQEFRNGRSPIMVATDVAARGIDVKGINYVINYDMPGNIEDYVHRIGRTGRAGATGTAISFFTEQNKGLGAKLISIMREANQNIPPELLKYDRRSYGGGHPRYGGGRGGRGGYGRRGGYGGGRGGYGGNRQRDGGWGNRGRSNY

AGCACCGUAAAGACGC (ssRNA) [16 nt ssRNA, 6-FAM] yielded an equilibrium dissociation constant (Kd) of 0.038 µM.

The term Kd denotes the free concentration of one partner at which half of the binding sites on the other are occupied at equilibrium, for simple one-to-one binding. A higher Kd goes with lower affinity.
